Read-outs that look alike come from different tables or passages of the source. Each block holds one binder with its values, some of them ahead of it.
Tests used:
Assay in all cases: dot blot: serial dilutions of hLIGHT spotted on PVDF, probed with 5 μg/ml antibody
[1] = target: soluble FLAG-tagged recombinant hLIGHT (Gly66-Val240 with N-terminal FLAG), native form (human) (UniProt O43557)
[2] = target: denatured soluble hLIGHT (boiled in 2x SDS sample buffer) (human) (UniProt O43557)
[3] = target: denatured soluble hLIGHT (boiled in 2x SDS sample buffer) (human) (UniProt O43557); remark: listed apart in the source

lowest detection limit (dot blot) [1]: 3.9 ng
lowest detection limit (dot blot) [2]: 139 ng
B1: E63 antibody (produced by hybridoma 124E63, ATCC PTA-7818) (antibody, V domains shown)
VH: QVQLQESGPGLVKPSETLSLTCIVSGGSVSSGGYYWSWIRQPPGKGLEWIGYIYYSGSTNYNPSLKSRVTISVDTSKNQFSLKLSSVTAADTAVYYCARWITMFRGVGFDPWGQGTLVTVSS
VL: EIVLTQSPDFQSVTPKEKVTITCRASQSIGSSLHWYQQKPDQSPKLLIKYASQSFSGVPSRFSGSGSGTDFTLTINSLEAEDAAAYYCHQSSSLPLTFGGGTKVEIK

lowest detection limit (dot blot) [1]: 23 ng
lowest detection limit (dot blot) [3]: > 5000 ng
B2: F19 antibody (produced by hybridoma 124F19, ATCC PTA-7819) (antibody, human IgG1, V domains shown)
VH: QVQLQQWGAGLLKPSETLSLTCAVYGGSFSGYNWHWIRQPPGKGLEWIGEITHSGSTNYNPSLKSRVTISVDTSKNQFSLKLSSVTAADTAVYYCVREIAVAGTGYYGMDVWGQGTTVTVSS
VL: AIQLTQSPSSLSASVGDRVTITCRASRGINSAFAWYQQKPGKAPKLLIYDASSLESGVPSRFSGSGSGTDFTLTISSLQPEDFATYYCQQFNSYPLTFGGGTKVEIK

— CN101663321A
